{
  "source": "patent US12180473B2",
  "about": "“Chimeric RNA-driven genomic rearrangement in mammalian cells” (priority 2018, dated 2024)",
  "key": {"[1]": {"tested_on": "TMPRSS2-ERG fusion", "assay_type": "cell-based, human", "protocol": "(§1) DHT was added at the final concentration of 0.9 μM six hours post transfection. Following overnight incubation, cells were then treated with 4 μg/ml α-amanitin for various time periods (0, 2, 6, 12 and 24 hours). Cells were then revived in fresh medium containing 0.9 μM DHT without α-amanitin and RT-PCR was performed for either TMPRSS2-ERG or TMPRSS2-ETV1 fusion."}, "[2]": {"tested_on": "TMPRSS2-ETV1 fusion", "assay_type": "cell-based, human", "protocol": "as §1"}, "[3]": {"tested_on": "TMPRSS2-ERG fusion", "experimental": "(§2) LNCaP cells were cultured in this special medium for 24 hrs prior to plasmid transfection.\n(§3) Transfection was performed using Turbofect transfection reagent (Thermo Scientific, #R0531) according to manufacturer's protocol. Briefly, 1 μg of a particular plasmid was first diluted in 100 μl of the serum-free DMEM followed by immediate mixing by pipetting. 4 μl of the transfection reagent was then added to the diluted DNA followed by mixing and incubation for 20 min. The DNA/transfection reagent mixture was then added drop wise to a well containing LNCaP cells in 1 ml medium.\n(§4) For treating cultured cells, concentrated DHT stock was diluted as 10× working solutions (for example, for 0.9 μM final concentration, 10× is prepared as 9.0 μM) with the appropriate complete culture medium and used immediately. […] Six hrs post transfection, 111 μl of fresh 10× DHT working solutions was added to each well of 12-wells plate containing 1 ml medium and transfected cells.\n(§5) Briefly, cells were suspended in 200 μl of PBS buffer and were then lysed with 400 μl of lysis buffer. The sample was then passed through the filter assembly resulting in the binding of the nucleic acids to the filter. The filter containing nucleic acids was then incubated with DNase I dissolved in DNase incubation buffer to degrade genomic and plasmid DNAs. The column was then rinsed with wash buffer and total RNA then eluted in a new tube for further analysis.\n(§6) After the addition of dNTPs, the mixture was denatured at 65° C. for 5 minutes. This was followed by the addition of a master-mix containing 1× superscript buffer, 10 mM DTT, 5 mM Magnesium chloride, RNaseOUT and Superscript III reverse transcriptase. Reactions were carried out at 50° C. for 50 minutes and then terminated by incubation at 85° C. for 5 minutes. cDNA was then treated with RNase-H for 20 minutes at 37° C. to degrade RNA in DNA/RNA hybrid. 1 μl of cDNA was used as template for each subsequent PCR reaction.\n(§7) The Denaturation, Annealing and Extension steps were performed 32 cycles for induced fusion RNA and 27 cycles for input RNA."}, "[4]": {"tested_on": "TMPRSS2-ERG fusion", "assay": "RT-PCR detection of induced endogenous TMPRSS2-ERG fusion transcript in LNCaP cells expressing input RNA", "details": "for induction of endogenous TMPRSS2-ERG fusion transcript (RT-PCR): LNCaP cells transfected with input RNA plasmid, DHT for 3 days", "experimental": "as §2, §3, §4, §5, §6, §7"}, "[5]": {"tested_on": "TMPRSS2-ETV1 fusion", "assay": "RT-PCR detection of induced TMPRSS2-ETV1 fusion transcript in LNCaP cells", "assay_type": "cell-based, human", "details": "LNCaP, two-round nested PCR", "protocol": "• 1st Round: Top down PCR with TMPRSS2 ex-1 F1 and ETV1 ex-6 R1 • Denaturation 94° C., 30 sec • Annealing * , 45 sec • Extension 72° C., 60 sec\nThe Denaturation, Annealing and Extension steps were performed 2 cycles. • 2 cycles at each temperature: 62° C., 61° C., 60° C. . . .\nLong Range PCR for Detecting Genomic DNA Fusion Junction"}, "[6]": {"tested_on": "BCR-KCNQ2 fusion", "assay": "Nested RT-PCR of induced BCR-KCNQ2 fusion transcript in 293T cells", "assay_type": "cell-based, human", "details": "for induction of BCR-KCNQ2 fusion: 293T, 3 days", "source_text": "FIGS. 42A-42E. BCR-KCNQ2 fusion induced in 293T cells by chimeric RNAs utilizing/excluding the SINE element for three-way junction formation. FIG. 42A. Examples of chimeric RNA design using Short Interspersed Nuclear Element (SINE) commonly present in the human genome. The designed chimeric RNA forge a three-way junction that could be formed between two SINEs in genomic DNA (in the stem) and chimeric RNA (perpendicular and below the stem). Genomic DNA stems formed by DNA repeats such as SINE/SINE repeats may constitute stems over 300 nts in length. Short lines in gray regions represent base pairings. SINEs are in crimson. FIG. 42B. […] This chimeric RNA has GC content of 52%. FIG. 42B discloses the BCR targeting sequence as SEQ ID NO: 245, the KCNQ2 targeting sequence as SEQ ID NO: 246, and the chimeric sequence as SEQ ID NO: 247. FIG. 42C. Examples of chimeric RNA design targeting DNA sequences of BCR and KCNQ2 genes in the genome which form genomic stems using regions outside of known DNA repeats such as Short Interspersed Nuclear Element (SINE). SINEs are commonly present in the human genome are shown in solid boxes. The DNA stem could range from 10 bp to >100 bp with some mismatches. FIG. 42D. […] This chimeric RNA target intron regions and has GC content of 60.4%. FIG. 42D discloses the BCR targeting sequence as SEQ ID NO: 248, the KCNQ2 targeting sequence as SEQ ID NO: 249, and the chimeric sequence as SEQ ID NO: 250. FIG. 42E. BCR-KCNQ2 fusion can be induced by chimeric RNAs that form 3-way junction with genomic stems using SINE repeats (Set1A) or outside of SINE repeats (Set1B). 293T cells were transfected with chimeric RNA expression plasmid for 3 days and then harvested for nested RT-PCR."}, "[7]": {"details": "LNCaP, 4 μg/ml α-amanitin, 0.9 μM DHT"}},
  "note": "Entries after “also recorded” stand apart in the source; their conditions may differ.",
  "data": [
    {"molecule": "CC[C@H](C)[C@@H]1NC(=O)CNC(=O)[C@@H]2Cc3c([nH]c4cc(O)ccc34)[S+]([O-])C[C@@H](NC(=O)CNC1=O)C(=O)N[C@@H](CC(N)=O)C(=O)N1C[C@H](O)C[C@H]1C(=O)N[C@@H]([C@@H](C)[C@@H](O)CO)C(=O)N2", "note": "(stereo in doubt) [α-amanitin, reference compound]", "values": [
      {"measurement": "effect of α-amanitin treatment on TMPRSS2-ERG induction by antisense input RNA", "setting": "[1]; lane 1 vs. 5", "result": "reduced the induction by antisense input RNAs"},
      {"measurement": "effect of α-amanitin treatment on TMPRSS2-ETV1 induction by antisense input RNA", "setting": "[2]; lane 11 vs. 15", "result": "reduced the induction by antisense input RNAs"}
    ]},
    {"molecule": "Antisense-2: input RNA, SEQ ID NO: 5 (nucleic acid) antisense: TGTGCTCGCTTCGGCAGCACATATACTAACATTGGAACGATCCTGCAGCTTGAGCCATTCACCTGGCTAGGGTTACATTCCATATTGATGGTGACCCTGGCTGGGGGTTGAGACAGCCAATCCTGCTGAGGGACGCGTGGGCTCATCTTGGAAGTCTGTCCATAGTCGCTGGAGGAGGACGCGGTCATCTCTGTCTTAGCCAGGTGTGGCGTTCCGTAGGCACACTCAAACAACGACTGGTCCTCACTCACAACTGATAAGGCTTCCTGCCGCGCTCCAGGCGGCGCTCCCCGCCCCTCGCCCTCCGCCTCCGCCTCCGCCTCCTGCTTAGCTCGCGCCTACTC", "values": [
      {"measurement": "induction with U6 promoter compared to CMV promoter", "setting": "[3]", "result": "more pronounced"},
      {"measurement": "induction of endogenous TMPRSS2-ERG fusion transcript (RT-PCR)", "setting": "[4]", "result": "induced a clear band of 721 bp; also recorded: capable of inducing the fusion transcript"},
      {"measurement": "Cell line(s) identified", "setting": "[4]; fusion gene partners TMPRSS2-ERG, LNCaP", "result": "LNCaP"}
    ]},
    {"molecule": "Antisense-B3: input RNA, SEQ ID NO: 17 (nucleic acid) antisense: TGTGCTCGCTTCGGCAGCACATATACTAACATTGGAACGATCCTGCAGTGGGGAGCATTTCCAGATGGAGAAACTGCAAGGAAAAGCATAGAAGTGGGGCCACCCCTCGTGAGCTGGGGAGGGCTCACCTGCCGCGCTCCAGGCGGCGCTCCCCGCCCCTCGCCCTCCGCCTCCG", "values": [
      {"measurement": "induction of endogenous TMPRSS2-ERG fusion transcript (RT-PCR)", "setting": "[4]", "result": "complete loss of induction"}
    ]},
    {"molecule": "Antisense-C2: input RNA, SEQ ID NO: 19 (nucleic acid) antisense: TGTGCTCGCTTCGGCAGCACATATACTAACATTGGAACGATCCTGCAGTGAGCTCATGCTATTCCTATGACATAGATGAGCACTGGGTAGACCCCGTCCTGGTAACACTATTCATGCACTAACCAGCACTCCCAGTCCTCCTCCCCAAAGAGAAAAGGCGCACCGGTGCTCCCAG", "values": [
      {"measurement": "induction of endogenous TMPRSS2-ERG fusion transcript (RT-PCR)", "setting": "[4]", "result": "complete loss of induction"}
    ]},
    {"molecule": "Sense-TMPRSS2-ETV1-A1: input RNA, SEQ ID NO: 42 (nucleic acid) sense: TGTGCTCGCTTCGGCAGCACATATACTAACATTGGAACGATCCTGCAGCCAGTTGGTGGAAGAGAGTCCCCCGGGGTCCCCAAAGCTGGCTCCTAGTCTACTGAATCTAACTAAGACTTTAACTTGGAACGATTTACATAATGCGGCA", "values": [
      {"measurement": "α-amanitin treatment time after which sense input RNA began to induce TMPRSS2-ETV1 fusion", "setting": "[2]; [7]", "result": 24, "unit": "h"},
      {"measurement": "induction of TMPRSS2-ETV1 fusion transcript (RT-PCR)", "setting": "[5]", "result": "failed to induce fusion transcript"}
    ]},
    {"molecule": "Sense-5: input RNA, SEQ ID NO: 29 (nucleic acid) sense: TGTGCTCGCTTCGGCAGCACATATACTAACATTGGAACGATCCTGCAGGAGTAGGCGCGAGCTTCCATCTCTCACTCCTGTCTGGCGGAGGGCGAGGGGCGGGGAGCGCCGCCTGGAGCGCGGCAGGTGAGCGGCGGATTGGCTGTCTCAACCCCCAGCCAGGGTCACCATCAAAATGGAATGTAACCCTAGCCAGGTGAATGGCTCAAG", "values": [
      {"measurement": "α-amanitin treatment time after which sense input RNA began to induce TMPRSS2-ERG", "setting": "[1]; [7]", "result": 12, "unit": "h"},
      {"measurement": "induction of endogenous TMPRSS2-ERG fusion transcript (RT-PCR)", "setting": "[4]", "result": "fails to induce TMPRSS2-ERG gene fusion"}
    ]},
    {"molecule": "Sense-2: input RNA, SEQ ID NO: 2 (nucleic acid) sense: TGTGCTCGCTTCGGCAGCACATATACTAACATTGGAACGATCCTGCAGGAGTAGGCGCGAGCTAAGCAGGAGGCGGAGGCGGAGGCGGAGGGCGAGGGGCGGGGAGCGCCGCCTGGAGCGCGGCAGGAAGCCTTATCAGTTGTGAGTGAGGACCAGTCGTTGTTTGAGTGTGCCTACGGAACGCCACACCTGGCTAAGACAGAGATGACCGCGTCCTCCTCCAGCGACTATGGACAGACTTCCAAGATGAGCCCACGCGTCCCTCAGCAGGATTGGCTGTCTCAACCCCCAGCCAGGGTCACCATCAAAATGGAATGTAACCCTAGCCAGGTGAATGGCTCAAG", "values": [
      {"measurement": "induction of endogenous TMPRSS2-ERG fusion transcript (RT-PCR)", "setting": "[4]", "result": "failed to induce fusion transcripts"}
    ]},
    {"molecule": "Sense-2 Long: input RNA, SEQ ID NO: 3 (nucleic acid) sense: TGTGCTCGCTTCGGCAGCACATATACTAACATTGGAACGATCCTGCAGGAGTAGGCGCGAGCTAAGCAGGAGGCGGAGGCGGAGGCGGAGGGCGAGGGGCGGGGAGCGCCGCCTGGAGCGCGGCAGGAAGCCTTATCAGTTGTGAGTGAGGACCAGTCGTTGTTTGAGTGTGCCTACGGAACGCCACACCTGGCTAAGACAGAGATGACCGCGTCCTCCTCCAGCGACTATGGACAGACTTCCAAGATGAGCCCACGCGTCCCTCAGCAGGATTGGCTGTCTCAACCCCCAGCCAGGGTCACCATCAAAATGGAATGTAACCCTAGCCAGGTGAATGGCTCAAGGAACTCTCCTGATGAATGCAGTGTGGCCAAAGGCGGGAAGATGGTGGGCAGCCCAGACACCGTTGGGATGAACTACGGCAGCTACATGGAGGAGAAGCACATGCCACCCCCAAACATGACCACGAACGAGCGCAGAGTTATCGTGCCAGCAGATCCTACGCTATGGAGTACAGACCATGTGCGGCAGTGGCTGGAGTGGGCGGTGAAAGAATATGGCCTTCCAGACGTCAACATCTTGTTATTCCAGAACATCGATGGGAAGGAACTGTGCAAGATGACCAAGGACGACTTCCAGAGGCTCACCCCCAGCTACAACGCCGACATCCTTCTCTCACATCTCCACTACCTCAGAGAGACTCCTCTTCCACATTTGACTTCAGATGATGTTGATAAAGCCTTA", "values": [
      {"measurement": "induction of endogenous TMPRSS2-ERG fusion transcript (RT-PCR)", "setting": "[4]", "result": "failed to induce fusion transcripts"}
    ]},
    {"molecule": "SEQ ID NO: 247: chimeric RNA utilizing the SINE element to induce BCR-KCNQ2 fusion, GC content 52% (S1A 200-1 or S1A 200-2) (nucleic acid, listed as DNA, further chemistry not given here) AGCAGGGGGGGCGGTGTCCACACATCCTCACTACGCTGATTTGCCATTTGACTTACACAGTGCAACTCATGTGTTACCAGCCTTCACTGTTCTGACAGCT", "values": [
      {"measurement": "induction of BCR-KCNQ2 fusion", "setting": "[6]", "result": "induce BCR-KCNQ2 fusion"}
    ]},
    {"molecule": "S1B 10-8: chimeric RNA, BCR-KCNQ2, GC content 60.4% (nucleic acid, listed as DNA, further chemistry not given here) CCAGGTGGAGCTGCCCATGCCTTCCCCGCAGGGCTGAGCCCACTCAGCCGTGAACCAAAGTCCACTAGTCCCATCAAAAGTGCTAACAGGAAGGGGGGATC", "values": [
      {"measurement": "induction of BCR-KCNQ2 fusion", "setting": "[6]", "result": "induce BCR-KCNQ2 fusion in 293T cells"},
      {"measurement": "Cell line(s) identified", "setting": "[6]; fusion gene partners BCR-KCNQ2, 293T", "result": 293, "unit": "T"}
    ]}
  ]
}
